# Measurements reported in patent US20080199851A1.
# Values joined by “and” are separate entries in the source; they are usually repeats but may differ in a detail not shown here. Equal values may be shown once.
# Legend:
# [1] = molecular target: Inactivated influenza B virus Hong Kong 5/72 (Influenza B virus Hong Kong 5/72); assay: lateral-flow sandwich, B line: M2110171 striped + 2/3-Eu
# [2] = molecular target: Inactivated influenza B virus Hong Kong 5/72 (Influenza B virus Hong Kong 5/72); assay: lateral-flow sandwich, M2110171 line + 2/3-gold, 0.021 HA/test
# [3] = molecular target: Inactivated influenza B virus Hong Kong 5/72 (Influenza B virus Hong Kong 5/72); assay: lateral-flow sandwich, M2110171 line + 2/3-gold, 0.041 HA/test
# [4] = molecular target: Inactivated influenza B virus Hong Kong 5/72 (Influenza B virus Hong Kong 5/72); assay: lateral-flow sandwich, M2110171 line + 2/3-gold, 0.082 HA/test
# [5] = molecular target: Inactivated influenza B virus Hong Kong 5/72 (Influenza B virus Hong Kong 5/72); assay: lateral-flow sandwich, M2110171 line + 2/3-gold, 0.164 HA/test
# [6] = molecular target: Inactivated influenza B virus Hong Kong 5/72 (Influenza B virus Hong Kong 5/72); assay: lateral-flow sandwich, M2110171 line + 2/3-Eu, 0.0021 HA units
# [7] = molecular target: Inactivated influenza B virus Hong Kong 5/72 (Influenza B virus Hong Kong 5/72); assay: lateral-flow sandwich, M2110171 line + 2/3-Eu, 0.0041 HA units
# [8] = molecular target: Inactivated influenza B virus Hong Kong 5/72 (Influenza B virus Hong Kong 5/72); assay: lateral-flow sandwich, M2110171 line + 2/3-Eu, 0.0082 HA units
# [9] = molecular target: Inactivated influenza B virus Hong Kong 5/72 (Influenza B virus Hong Kong 5/72); assay: lateral-flow sandwich, M2110171 line + 2/3-Eu, 0.0123 HA units
# [10] = molecular target: Inactivated influenza B virus Hong Kong 5/72 (Influenza B virus Hong Kong 5/72); assay: lateral-flow sandwich, M2110171 line + 2/3-Eu, 0.0164 HA units
# [11] = molecular target: Inactivated influenza B virus Hong Kong 5/72 (Influenza B virus Hong Kong 5/72); assay: lateral-flow sandwich, M2110171 line + 2/3-Eu, 0.0328 HA units
# [12] = molecular target: Inactivated influenza B virus Hong Kong 5/72 (Influenza B virus Hong Kong 5/72); assay: lateral-flow sandwich, M2110171 line + 2/3-Eu, 0.002 HA units/test
# [13] = molecular target: Inactivated influenza B virus Hong Kong 5/72 (Influenza B virus Hong Kong 5/72); assay: lateral-flow sandwich, M2110171 line + 2/3-Eu, 0.004 HA units/test
# [14] = molecular target: Inactivated influenza B virus Hong Kong 5/72 (Influenza B virus Hong Kong 5/72); assay: lateral-flow sandwich, M2110171 line + 2/3-Eu, 0.008 HA units/test
# [15] = molecular target: Inactivated influenza B virus Hong Kong 5/72 (Influenza B virus Hong Kong 5/72); assay: lateral-flow sandwich, M2110171 line + 2/3-Eu, 0.016 HA units/test
# [16] = molecular target: Inactivated influenza B virus Hong Kong 5/72 (Influenza B virus Hong Kong 5/72); assay: lateral-flow sandwich, M2110171 line + 2/3-Eu, 0.032 HA units/test
# [17] = molecular target: Inactivated influenza B virus Hong Kong 5/72 (Influenza B virus Hong Kong 5/72); assay: lateral-flow sandwich, M2110171 line + 2/3-Eu, 0.002 HA units/test, against 0 HA
# [18] = molecular target: Inactivated influenza B virus Hong Kong 5/72 (Influenza B virus Hong Kong 5/72); assay: lateral-flow sandwich, M2110171 line + 2/3-Eu, 0.004 HA units/test, against 0 HA
# [19] = molecular target: Inactivated influenza B virus Hong Kong 5/72 (Influenza B virus Hong Kong 5/72); assay: lateral-flow sandwich, M2110171 line + 2/3-Eu, 0.008 HA units/test, against 0 HA
# [20] = molecular target: Inactivated influenza B virus Hong Kong 5/72 (Influenza B virus Hong Kong 5/72); assay: lateral-flow sandwich, M2110171 line + 2/3-Eu, 0.016 HA units/test, against 0 HA
# [21] = molecular target: Inactivated influenza B virus Hong Kong 5/72 (Influenza B virus Hong Kong 5/72); assay: lateral-flow sandwich, M2110171 line + 2/3-Eu, 0.032 HA units/test, against 0 HA
# [22] = molecular target: Inactivated influenza B virus Hong Kong 5/72 (Influenza B virus Hong Kong 5/72); assay: lateral-flow sandwich, A line: 7304 striped + M4090913-Eu
# [23] = molecular target: Inactivated influenza A virus Texas 1/77 (H3N2) (Influenza A virus Texas 1/77 (H3N2)); assay: lateral-flow sandwich, 7304 line + M4090913-gold, 0.21 HA/test
# [24] = molecular target: Inactivated influenza A virus Texas 1/77 (H3N2) (Influenza A virus Texas 1/77 (H3N2)); assay: lateral-flow sandwich, 7304 line + M4090913-gold, 0.41 HA/test
# [25] = molecular target: Inactivated influenza A virus Texas 1/77 (H3N2) (Influenza A virus Texas 1/77 (H3N2)); assay: lateral-flow sandwich, 7304 line + M4090913-gold, 0.82 HA/test
# [26] = molecular target: Inactivated influenza A virus Texas 1/77 (H3N2) (Influenza A virus Texas 1/77 (H3N2)); assay: lateral-flow sandwich, 7304 line + M4090913-gold, 1.64 HA/test
# [27] = molecular target: Inactivated influenza A virus Texas 1/77 (H3N2) (Influenza A virus Texas 1/77 (H3N2)); assay: lateral-flow sandwich, 7304 line + M4090913-Eu, 0.021 HA units
# [28] = molecular target: Inactivated influenza A virus Texas 1/77 (H3N2) (Influenza A virus Texas 1/77 (H3N2)); assay: lateral-flow sandwich, 7304 line + M4090913-Eu, 0.041 HA units
# [29] = molecular target: Inactivated influenza A virus Texas 1/77 (H3N2) (Influenza A virus Texas 1/77 (H3N2)); assay: lateral-flow sandwich, 7304 line + M4090913-Eu, 0.082 HA units
# [30] = molecular target: Inactivated influenza A virus Texas 1/77 (H3N2) (Influenza A virus Texas 1/77 (H3N2)); assay: lateral-flow sandwich, 7304 line + M4090913-Eu, 0.123 HA units
# [31] = molecular target: Inactivated influenza A virus Texas 1/77 (H3N2) (Influenza A virus Texas 1/77 (H3N2)); assay: lateral-flow sandwich, 7304 line + M4090913-Eu, 0.164 HA units
# [32] = molecular target: Inactivated influenza A virus Texas 1/77 (H3N2) (Influenza A virus Texas 1/77 (H3N2)); assay: lateral-flow sandwich, 7304 line + M4090913-Eu, 0.328 HA units
# [33] = molecular target: Inactivated influenza A virus Texas 1/77 (H3N2) (Influenza A virus Texas 1/77 (H3N2)); assay: lateral-flow sandwich, 7304 line + M4090913-Eu, 1 HA unit/test
# [34] = molecular target: Inactivated influenza A virus Texas 1/77 (H3N2) (Influenza A virus Texas 1/77 (H3N2)); assay: lateral-flow sandwich, 7304 line + M4090913-Eu, 0.021 HA unit
# [35] = molecular target: Inactivated influenza A virus Texas 1/77 (H3N2) (Influenza A virus Texas 1/77 (H3N2)); assay: lateral-flow sandwich, 7304 line + M4090913-gold, 0.105 HA/test
# [36] = molecular target: Inactivated influenza A virus Texas 1/77 (H3N2) (Influenza A virus Texas 1/77 (H3N2)); assay: lateral-flow sandwich, 7304 line + M4090913-Eu, 0.1 HA units/test
# [37] = molecular target: Inactivated influenza A virus Texas 1/77 (H3N2) (Influenza A virus Texas 1/77 (H3N2)); assay: lateral-flow sandwich, 7304 line + M4090913-Eu, 0.01 HA units/test
# [38] = molecular target: Inactivated influenza A virus Texas 1/77 (H3N2) (Influenza A virus Texas 1/77 (H3N2)); assay: lateral-flow sandwich, 7304 line + M4090913-Eu, 0.02 HA units/test
# [39] = molecular target: Inactivated influenza A virus Texas 1/77 (H3N2) (Influenza A virus Texas 1/77 (H3N2)); assay: lateral-flow sandwich, 7304 line + M4090913-Eu, 0.04 HA units/test
# [40] = molecular target: Inactivated influenza A virus Texas 1/77 (H3N2) (Influenza A virus Texas 1/77 (H3N2)); assay: lateral-flow sandwich, 7304 line + M4090913-Eu, 1 HA unit/test, against 0 HA
# [41] = molecular target: Inactivated influenza A virus Texas 1/77 (H3N2) (Influenza A virus Texas 1/77 (H3N2)); assay: lateral-flow sandwich, 7304 line + M4090913-Eu, 0.1 HA units/test, against 0 HA
# [42] = molecular target: Inactivated influenza A virus Texas 1/77 (H3N2) (Influenza A virus Texas 1/77 (H3N2)); assay: lateral-flow sandwich, 7304 line + M4090913-Eu, 0.01 HA units/test, against 0 HA
# [43] = molecular target: Inactivated influenza A virus Texas 1/77 (H3N2) (Influenza A virus Texas 1/77 (H3N2)); assay: lateral-flow sandwich, 7304 line + M4090913-Eu, 0.02 HA units/test, against 0 HA
# [44] = molecular target: Inactivated influenza A virus Texas 1/77 (H3N2) (Influenza A virus Texas 1/77 (H3N2)); assay: lateral-flow sandwich, 7304 line + M4090913-Eu, 0.04 HA units/test, against 0 HA
# [45] = molecular target: Inactivated influenza B virus Hong Kong 5/72 (Influenza B virus Hong Kong 5/72)
# [46] = molecular target: Inactivated influenza B virus Hong Kong 5/72 (Influenza B virus Hong Kong 5/72); assay: lateral-flow sandwich, 9901 line + 2/3-Eu, 0.0021 HA units
# [47] = molecular target: Inactivated influenza B virus Hong Kong 5/72 (Influenza B virus Hong Kong 5/72); assay: lateral-flow sandwich, 9901 line + 2/3-Eu, 0.0041 HA units
# [48] = molecular target: Inactivated influenza B virus Hong Kong 5/72 (Influenza B virus Hong Kong 5/72); assay: lateral-flow sandwich, 9901 line + 2/3-Eu, 0.0082 HA units
# [49] = molecular target: Inactivated influenza B virus Hong Kong 5/72 (Influenza B virus Hong Kong 5/72); assay: lateral-flow sandwich, 9901 line + 2/3-Eu, 0.0123 HA units
# [50] = molecular target: Inactivated influenza B virus Hong Kong 5/72 (Influenza B virus Hong Kong 5/72); assay: lateral-flow sandwich, 9901 line + 2/3-Eu, 0.0164 HA units
# [51] = molecular target: Inactivated influenza B virus Hong Kong 5/72 (Influenza B virus Hong Kong 5/72); assay: lateral-flow sandwich, 9901 line + 2/3-Eu, 0.0328 HA units
substance,measurement,setting,value
Anti-Flu B nucleoprotein M2110171 (Fitzgerald) (antibody),Signal/noise of test line,[1],437
same,Peak Intensity,[2],2.8 and 2.7
same,Peak Intensity(avg),[2],2.78
same,Peak Intensity,[3],4.8 and 4.6
same,Peak Intensity(avg),[3],4.67
same,Peak Intensity,[4],7.3 and 8.2
same,Peak Intensity(avg),[4],7.76
same,Peak Intensity,[5],14.4 and 13.3
same,Peak Intensity(avg),[5],13.8
same,fluorescence intensity (AVG),[6],1380
same,fluorescence intensity (AVG),[7],2670
same,fluorescence intensity (AVG),[8],3590
same,fluorescence intensity (AVG),[9],6550
same,fluorescence intensity (AVG),[10],7130
same,fluorescence intensity (AVG),[11],12800
same,Net peak height,[12],496 and 539
same,Net peak height (AVG),[12],517
same,Net peak height,[13],884 and 896
same,Net peak height (AVG),[13],890
same,Net peak height,[14],1630 and 1700
same,Net peak height (AVG),[14],1670
same,Net peak height,[15],3330 and 2570
same,Net peak height (AVG),[15],2950
same,Net peak height,[16],7200 and 6970
same,Net peak height (AVG),[16],7090
same,signal/noise,[17],3.5
same,signal/noise,[18],6
same,signal/noise,[19],11.2
same,signal/noise,[20],19.8
same,signal/noise,[21],47.6
anti-Flu A Medix 7304 antibody,Signal/noise of test line,[22],4.8
same,Peak Intensity,[23],4.8 and 8.6
same,Peak Intensity(avg),[23],6.7
same,Peak Intensity,[24],13.2 and 9.1
same,Peak Intensity(avg),[24],11.2
same,Peak Intensity,[25],14.8 and 13.5
same,Peak Intensity(avg),[25],14.1
same,Peak Intensity,[26],26.4 and 22.5
same,Peak Intensity(avg),[26],24.5
same,fluorescence intensity (AVG),[27],1270
same,fluorescence intensity (AVG),[28],1600
same,fluorescence intensity (AVG),[29],2280
same,fluorescence intensity (AVG),[30],3730
same,fluorescence intensity (AVG),[31],4080
same,fluorescence intensity (AVG),[32],8690
same,fluorescence signal,[33],21100 and 20000
same,fluorescence signal (AVG),[33],20500
same,Signal/noise (S/N) ratio,[34],2.03
same,Peak Intensity,[35],2.2 and 3.3
same,Peak Intensity(avg),[35],2.8
same,fluorescence signal,[36],2550 and 2400
same,fluorescence signal (AVG),[36],2470
same,fluorescence signal,[37],794 and 776
same,fluorescence signal (AVG),[37],785
same,fluorescence signal,[38],936 and 1040
same,fluorescence signal (AVG),[38],987
same,fluorescence signal,[39],1420 and 1440
same,fluorescence signal (AVG),[39],1430
same,S/N,[40],37.4
same,S/N,[41],4.5
same,S/N,[42],1.4
same,S/N,[43],1.8
same,S/N,[44],2.6
anti-Flu B Medix 9901 antibody,S/N ratio,[45],4.96
same,fluorescence intensity (AVG),[46],1490
same,fluorescence intensity (AVG),[47],1580
same,fluorescence intensity (AVG),[48],2480
same,fluorescence intensity (AVG),[49],2710
same,fluorescence intensity (AVG),[50],5440
same,fluorescence intensity (AVG),[51],9990
